Data from article PMC4529168, “Molecular Cloning, Heterologous Expression, and Functional Characterization of an NADPH-Cytochrome P450 Reductase Gene from Camptotheca acuminata, a Camptothecin-Producing Plant” (PLoS ONE, 2015).

System: T1, NC(=O)C1=CN([C@@H]2O[C@H](COP(=O)(O)OP(=O)(O)OC[C@H]3O[C@@H](n4cnc5c(N)ncnc54)[C@H](OP(=O)(O)O)[C@@H]3O)[C@@H](O)[C@H]2O)C=CC1
T1 construct: N-terminal 69 residues (membrane anchor) removed, His6-tag kept (probably N-terminal, 660 residues with tag), expressed in E. coli BL21(DE3), Ni-NTA purified
Experiment: purified protein
Type: biochemical, Camptotheca acuminata
Conditions: 75 μM equine heart cytochrome c, 50 mM Tris-HCl pH 7.4, 25°C

Chain of tCamCPR (Camptotheca acuminata) (chain, as listed by the source): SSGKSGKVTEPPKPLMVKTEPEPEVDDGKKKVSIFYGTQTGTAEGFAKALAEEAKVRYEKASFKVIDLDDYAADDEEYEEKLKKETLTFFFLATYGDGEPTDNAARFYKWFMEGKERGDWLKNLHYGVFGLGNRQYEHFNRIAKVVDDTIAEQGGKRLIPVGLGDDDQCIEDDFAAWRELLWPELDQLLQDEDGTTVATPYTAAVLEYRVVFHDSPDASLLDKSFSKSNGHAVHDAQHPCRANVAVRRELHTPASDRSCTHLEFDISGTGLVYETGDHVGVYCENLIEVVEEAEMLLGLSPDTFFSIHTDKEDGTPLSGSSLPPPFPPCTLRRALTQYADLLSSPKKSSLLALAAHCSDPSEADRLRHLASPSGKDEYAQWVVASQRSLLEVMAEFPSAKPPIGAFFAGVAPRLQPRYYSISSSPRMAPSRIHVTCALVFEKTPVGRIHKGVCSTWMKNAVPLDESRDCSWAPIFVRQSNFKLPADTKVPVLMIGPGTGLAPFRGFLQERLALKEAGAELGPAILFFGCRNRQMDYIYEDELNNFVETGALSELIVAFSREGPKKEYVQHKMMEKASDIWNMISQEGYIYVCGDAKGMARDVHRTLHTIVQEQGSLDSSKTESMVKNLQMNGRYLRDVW

tCamCPR (Camptotheca acuminata)
Km: 18.7 ± 3.6 µM
